Where two headings read alike, the source gives them in different places.
T1: monkey CD40 on HEK293A/monkey CD40 cells (monkey, UniProt P25942 21-277 (human entry))
T1 chain: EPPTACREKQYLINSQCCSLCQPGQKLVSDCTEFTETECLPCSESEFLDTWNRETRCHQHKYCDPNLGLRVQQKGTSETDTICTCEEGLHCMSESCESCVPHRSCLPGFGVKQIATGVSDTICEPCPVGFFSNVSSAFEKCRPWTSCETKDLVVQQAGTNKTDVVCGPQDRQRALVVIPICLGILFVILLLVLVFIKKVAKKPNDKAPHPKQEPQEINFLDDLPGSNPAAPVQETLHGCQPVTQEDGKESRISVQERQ

T2: mouse CD40 on HEK293A cells (mouse, UniProt P27512 20-289)
T2 sequence: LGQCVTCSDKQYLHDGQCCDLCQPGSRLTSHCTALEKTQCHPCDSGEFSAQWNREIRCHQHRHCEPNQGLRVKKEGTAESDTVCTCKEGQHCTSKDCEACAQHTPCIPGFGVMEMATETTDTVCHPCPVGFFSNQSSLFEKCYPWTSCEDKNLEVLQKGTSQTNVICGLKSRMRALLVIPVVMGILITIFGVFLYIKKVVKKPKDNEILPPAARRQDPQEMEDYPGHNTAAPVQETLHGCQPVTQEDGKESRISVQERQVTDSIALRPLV


Legend:
[1] = molecular target: T1, monkey CD40 on HEK293A/monkey CD40 cells; test: FACS on HEK293A/monkey CD40 cells
How it was run: (§1)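 Binding to HEK293A cells stably expressing human, monkey or mouse CD40, 10⁵ cells per well. Serially diluted antibodies (from 40 μg/ml) incubated 1 h at 4 °C. Detection with APC anti-mouse IgG, 1 h at 4 °C, then flow cytometry.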

[2] = molecular target: T3, human PD-L1 on HEK293A/human PD-L1 cells (human, UniProt Q9NZQ7 19-290); test: FACS blocking assay on HEK293A/human PD-L1 cells; blocked ligand PD-1-Fc
Procedure: (§2) The bispecific antibodies were tested for their blocking activity on PD-1-PD-L1 binding by FACS using the HEK293A cells stably expressing human PD-L1 molecules as prepared in Example 1. Briefly, a 96-well plate was seeded with 10⁵ HEK293A/human PD-L1 cells in 100 μl cell culture medium, and then added with 50 μl serially diluted anti-PD-L1 antibody 56E5VH5VL4 or MBS307-3 molecules. After incubation at 4° C. for 1 h. the plate was washed with PBST for 3 times, added with 100 μl 200 μg/ml PD-1-Fc fusion proteins (Cat #:10377-10211, Sino Biological, CN), incubated at 4° C. for 1 h, washed with PBST for 3 times, and added with 1:500 diluted PE-goat anti-human IgG (Cat #:PAI-86078, Thermofisher, USA). After incubation at 4° C. for 1 h, the plate was washed with PBST for 3 times and measured for fluorescence using a FACS machine (BD).
(§3) Following the protocol of Example 7, the bi- or multi-specific antibodies were tested for their capability to block PD-1-PD-L1 binding by FACS, using the HEK293A cells prepared in Example 1 that stably expressed human PD-L1 molecules.

[3] = molecular target: T2, mouse CD40 on HEK293A cells; test: FACS on HEK293A cells expressing mouse CD40
Procedure: (§4) The bispecific antibodies as prepared above were tested for their binding capability to cell surface human, monkey and mouse CD40 proteins by FACS, using the HEK293A cells prepared in Example 1 that stably expressed human, monkey or mouse CD40. Briefly, a 96-well plate was seeded with 10⁵ HEK293A cells in 50 μl PBS, and then added with 100 μl serially diluted anti-CD40 antibody 714VH2VL2 and the bispecific antibodies of the disclosure (starting concentration at 40 μg/ml). After incubation at 4° C. for 1 h, the plate was washed by PBST for 3 times. The plate was added with 1:500 diluted APC-goat anti-mouse IgG (Cat #:405308, BioLegen, USA), incubated at 4° for 1 h, washed with PBS for 3 times, and subjected to fluorescence measurement in a FACS machine (BD).

[4] = molecular target: T4, human PD-L1-his protein (human, UniProt Q9NZQ7 19-238); test: SPR (BIAcore 8K), human PD-L1-his coupled to CM5 chip, antibody injected
T4 construct: extracellular domain; also called human PD-L1 (ECD)-his; human PD-L1 protein; not shown: his tag
Text: (§5) Using BIAcore™ 8K instrument (GE Life Sciences, US), the binding affinity of the bi- or multi-specific antibodies to human CD40 and PD-L1 was quantitatively measured. Briefly, 100-200 response units (RU) of human CD40-his protein (Cat #:10774-1108H, Sino Biological, CN) or human PD-L1-his protein (Cat #:10084-H08H, Sino Biological, CN) were coupled to CM5 biosensor chips (Cat #:BR-1005-30, GE Life Sciences. USA). The un-reacted groups were then blocked with 1 M ethanolamine. Serially diluted antibodies at concentrations ranging from 0.3 μM to 10 μM were injected into the SPR running buffer (HBS-EP buffer, pH7.4, Cat #:BR-1006-69, GE Life Sciences, USA) at 30 μL/min. The binding affinity was calculated with the RUs of blank controls subtracted, and the association rate (kₐ) and dissociation rate (kd) were determined using the one-to-one Langmuir binding model (BIA Evaluation Software, GE Life Sciences, USA). The equilibrium dissociation constant KD was calculated as the kd/kₐ ratio.

[5] = molecular target: monkey PD-L1 on HEK293A/monkey PD-L1 cells (monkey, UniProt Q9NZQ7 19-290 (human entry)); test: FACS on HEK293A/monkey PD-L1 cells
Procedure: as §4
(§6) Following the protocol of Example 4, the bispecific antibodies were tested for their binding capability to cell surface human, or monkey PD-L1 proteins by FACS, using the HEK293A cells prepared in Example 1 that stably expressed human or monkey […].

[6] = molecular target: T5, human CD40 on HEK293A/human CD40 cells (human, UniProt P25942 21-277); test: cell-based or functional assay
[7] = molecular target: T3, human PD-L1 on HEK293A/human PD-L1 cells; test: FACS blocking assay on HEK293A/human PD-L1 cells; blocked ligand PD-1-Fc; remark: listed apart in the source
Procedure: as §2

[8] = molecular target: T5, human CD40 on HEK293A/human CD40 cells; test: FACS on HEK293A/human CD40 cells
How it was run: as §1

[9] = molecular target: T5, human CD40 on HEK293A/human CD40 cells; test: FACS on HEK293A/human CD40 cells; remark: listed apart in the source
Procedure: as §4
(§7) Following the protocols in Example 4 and Example 5, the bi- or multi-specific antibodies of the disclosure were tested for their binding capability to human PD-L1 and human CD40 proteins by FACS using the HEK293A cells prepared in Example 1 that stably expressed human PD-L1 or human CD40.

[10] = molecular target: T3, human PD-L1 on HEK293A/human PD-L1 cells; test: FACS on HEK293A/human PD-L1 cells
Procedure: as §4, §7

[11] = molecular target: T3, human PD-L1 on HEK293A/human PD-L1 cells; test: FACS on HEK293A/human PD-L1 cells; remark: listed apart in the source
Procedure: as §4, §6

[12] = molecular target: T6, human CD40-his protein (human, UniProt P25942 21-193); test: SPR (BIAcore 8K), human CD40-his coupled to CM5 chip, antibody injected
T6 construct: Bought protein; also called human CD40 protein; CD40 molecules; not shown: his tag
Text: as §5

[13] = molecular target: T3, human PD-L1 on HEK293A/human PD-L1 cells; test: FACS on HEK293A/human PD-L1 cells; remark: listed apart in the source
Procedure: as §4, §7

[14] = molecular target: T5, human CD40 on HEK293A/human CD40 cells; test: cell-based or functional assay; remark: listed apart in the source
[15] = molecular target: T3, human PD-L1 on HEK293A/human PD-L1 cells; test: FACS blocking assay on HEK293A/human PD-L1 cells; blocked ligand PD-1-Fc; remark: listed apart in the source
Procedure: as §2, §3

T3 sequence (Q9NZQ7 19-290 limits assumed): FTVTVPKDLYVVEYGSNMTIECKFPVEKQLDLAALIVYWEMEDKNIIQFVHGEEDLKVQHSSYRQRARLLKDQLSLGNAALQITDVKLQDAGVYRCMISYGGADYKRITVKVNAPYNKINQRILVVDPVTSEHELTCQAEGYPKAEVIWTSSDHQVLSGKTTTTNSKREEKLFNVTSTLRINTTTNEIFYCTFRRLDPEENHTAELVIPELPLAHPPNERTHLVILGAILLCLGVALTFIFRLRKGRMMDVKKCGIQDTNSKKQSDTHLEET
T4 sequence (Q9NZQ7 19-238): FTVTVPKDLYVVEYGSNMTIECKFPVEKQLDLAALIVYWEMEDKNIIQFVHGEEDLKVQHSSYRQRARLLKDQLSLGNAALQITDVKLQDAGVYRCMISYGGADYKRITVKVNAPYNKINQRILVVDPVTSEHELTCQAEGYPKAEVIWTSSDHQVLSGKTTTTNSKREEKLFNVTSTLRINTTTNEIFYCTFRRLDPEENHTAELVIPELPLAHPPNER
Sequence of monkey PD-L1 on HEK293A/monkey PD-L1 cells (Q9NZQ7 other isoform, or with tags, fused parts or gaps limits assumed): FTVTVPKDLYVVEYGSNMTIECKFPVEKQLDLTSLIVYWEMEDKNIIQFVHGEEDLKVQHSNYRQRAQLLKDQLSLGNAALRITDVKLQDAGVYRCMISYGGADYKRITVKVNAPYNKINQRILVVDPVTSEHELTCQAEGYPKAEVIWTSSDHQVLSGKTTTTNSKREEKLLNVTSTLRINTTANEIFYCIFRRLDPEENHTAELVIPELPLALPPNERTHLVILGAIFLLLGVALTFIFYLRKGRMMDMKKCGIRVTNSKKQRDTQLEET

EC50 (read off the curve) [1] [µg/mL]	IC50 (read off the curve) [2] [µg/mL]	Kd [4] [nM]	EC50 (read off the curve) [5] [µg/mL]	EC50 (read off the curve); HEK-Blue/CD40 reporter, OD630, plate coated with human PD-L1-his [6] [µg/mL]	IC50 (read off the curve) [7] [µg/mL]	EC50 (read off the curve) [8] [µg/mL]	EC50 (read off the curve) [9] [µg/mL]	EC50 (read off the curve) [10] [µg/mL]	EC50 (read off the curve) [11] [µg/mL]	Kd [12] [nM]	EC50 (read off the curve) [13] [µg/mL]	EC50 (read off the curve); HEK-Blue/CD40 reporter, OD630, plate coated with human PD-L1-his [14] [µg/mL]	IC50 (read off the curve) [15] [µg/mL]	Binder	binding result [3]
~0.1	~0.08	0.321	~0.09	~0.1	~0.1	~0.1	~0.1	~0.2	~0.1	1.42	~0.1			MBS307-3 (bispecific antibody, human IgG1, kappa, L234A L235A, Symmetric: full-length anti-CD40 antibody with an anti-PD-L1 scFv (56E5VH5VL4) at the C terminus of each heavy chain) heavy: QVQLQESGPGLVKPSDTLSLTCAVSGYSITTNYYWNWIRQPPGKGLEWMGYIKYDGSNNYNPSLKNRITISVDTSKNQFSLKLSSVTAVDTAVYYCARLDYWGQGTLVTVSSASTKGPSVFPLAPSSKSTSGGTAALGCLVKDYFPEPVTVSWNSGALTSGVHTFPAVLQSSGLYSLSSVVTVPSSSLGTQTYICNVNHKPSNTKVDKKVEPKSCDKTHTCPPCPAPEAAGGPSVFLFPPKPKDTLMISRTPEVTCVVVDVSHEDPEVKFNWYVDGVEVHNAKTKPREEQYNSTYRVVSVLTVLHQDWLNGKEYKCKVSNKALGAPIEKTISKAKGQPREPQVYTLPPSREEMTKNQVSLTCLVKGFYPSDIAVEWESNGQPENNYKTTPPVLDSDGSFFLYSKLTVDKSRWQQGNVFSCSVMHEALHNHYTQKSLSLSPGSGGGGSGGGGSQVQLQESGPGLVKPSQTLSLTCTVSGGSITSDYWNWIRQHPGNKLEYMGYISYTGSTYYNPSLKSRISITRDTSKNQFSLKLSSVTTADTAVYYCARYRDWDVRAMDYWGQGTTVTVSSGGGGSGGGGSGGGGSGGGGSDIVMTQSPDSLAVSLGEKVTMNCKSSQSLLISGNQKNFLTWYQQKPGQPPKLLIYWASTRESGVPDRFSGSGSGTDFTLTISSLQAEDEAVYYCQNDFGFPFTFGQGTKLTAK light: DVVLTQSPLSLPVTLGQPASISCRSSQSLENSNGNTFLNWFQQRPGQSPRLLIYKVSNRFSGVPDRFSGSGSGTDFTLKISRVEAEDVGVYYCLQVTHVPFTFGQGTKLEIKRTVAAPSVFIFPPSDEQLKSGTASVVCLLNNFYPREAKVQWKVDNALQSGNSQESVTEQDSKDSTYSLSSTLTLSKADYEKHKVYACEVTHQGLSSPVTKSFNRGEC	no binding (tested: starting concentration at 40 µg/ml)
		0.069								4.37		~0.01	~0.01	MBS307-11 (bispecific antibody, human IgG1, kappa, L234A L235A, Asymmetric: knob chain with the anti-PD-L1 nanobody, hole chain with the 3C2VH6VL5 scFv; also called MBS307-11-1 + MBS307-11-2) heavy 1: QVQLQESGPGLVKPSDTLSLTCAVSGYSITTNYYWNWIRQPPGKGLEWMGYIKYDGSNNYNPSLKNRITISVDTSKNQFSLKLSSVTAVDTAVYYCARLDYWGQGTLVTVSSASTKGPSVFPLAPSSKSTSGGTAALGCLVKDYFPEPVTVSWNSGALTSGVHTFPAVLQSSGLYSLSSVVTVPSSSLGTQTYICNVNHKPSNTKVDKKVEPKSCDKTHTCPPCPAPEAAGGPSVFLFPPKPKDTLMISRTPEVTCVVVDVSHEDPEVKFNWYVDGVEVHNAKTKPREEQYNSTYRVVSVLTVLHQDWLNGKEYKCKVSNKALPAPIEKTISKAKGQPREPQVYTLPPSREEMTKNQVSLWCLVKGFYPSDIAVEWESNGQPENNYKTTPPVLDSDGSFFLYSKLTVDKSRWQQGNVFSCSVMHEALHNHYTQKSLSLSPGGGGGQVQLLESGGGLVQPGGSLRLSCAASGFAFSDYAMTWVRQAPGKGLEWVSTINSGGQSSSYLDSVKGRFTSSRDNSKNTLYLQMNSLRAEDTAVYYCAKGVYMPWKAPKGQGTLVTVSS heavy 2: QVQLQESGPGLVKPSDTLSLTCAVSGYSITTNYYWNWIRQPPGKGLEWMGYIKYDGSNNYNPSLKNRITISVDTSKNQFSLKLSSVTAVDTAVYYCARLDYWGQGTLVTVSSASTKGPSVFPLAPSSKSTSGGTAALGCLVKDYFPEPVTVSWNSGALTSGVHTFPAVLQSSGLYSLSSVVTVPSSSLGTQTYICNVNHKPSNTKVDKKVEPKSCDKTHTCPPCPAPEAAGGPSVFLFPPKPKDTLMISRTPEVTCVVVDVSHEDPEVKFNWYVDGVEVHNAKTKPREEQYNSTYRVVSVLTVLHQDWLNGKEYKCKVSNKALPAPIEKTISKAKGQPREPQVYTLPPSREEMTKNQVSLSCAVKGFYPSDIAVEWESNGQPENNYKTTPPVLDSDGSFFLVSKLTVDKSRWQQGNVFSCSVMHEALHNHYTQKSLSLSPGGGGGQVQLVQSGAEVKKPGASVKVSCKASGYTFTDYHVNWVRQAPGQGLEWIGWIFPGSGRTFYTDKFKGRVTMTVDTSTSTVYMELSSLRSEDTAVYYCATDYGTSGYGLVYWGQGTTVTVSSGGGGSGGGGSGGGGSGGGGSDIQMTQSPSSLSASVGDRVTITCKASDRINNWLAWYQQKPGKAPKLLISGATSLETGVPSRFSGSGSGTDFTLTISSLQPEDEATYYCQQYWNIPFTFGQGTKLTAK light: DVVLTQSPLSLPVTLGQPASISCRSSQSLENSNGNTFLNWFQQRPGQSPRLLIYKVSNRFSGVPDRFSGSGSGTDFTLKISRVEAEDVGVYYCLQVTHVPFTFGQGTKLEIKRTVAAPSVFIFPPSDEQLKSGTASVVCLLNNFYPREAKVQWKVDNALQSGNSQESVTEQDSKDSTYSLSSTLTLSKADYEKHKVYACEVTHQGLSSPVTKSFNRGEC	

Reference: patent US20240084027A1 (BEIJING MABWORKS, published 2024)
